From the supplement of paper PMC9170038

Tested on: K4 kissing-loop RNA reporter
Assay: apparent KD of K4 kissing-loop reporter; higher = weaker reporter binding
Conditions: Eterna round: R107; input ligand: arginine 13.2 mM
Experimental: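 RNA-MaP round R107: designed RNA switches with theophylline, tryptophan, arginine or FMN aptamers are transcribed on-chip within common flanks. They are titrated with a labelled K4 kissing-loop RNA reporter in RNA-MaP buffer (100 mM Tris pH 7.5, 80 mM KCl, 4 mM MgCl2), without ligand or with the indicated ligand. Median apparent KD per design.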
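Note: bound reporter read as fluorescence of individual clusters on recovered sequencing chips by microscopy, with normalized cluster intensities fitted with a binding model.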

“UUAUGUUUAGUUCACCCAGUGAUGUUGGAAGGAGCGUGCGAAAGCACAGGUAGGUCGCCAACCUUAAAGUGUCUUGAUUAUCUAA [JR_Nu_ExcArginiA_Sub029]” and “CGCAGUGAUGUUGCUAUUAUUCUUGGUUAACGAGGACCGGUACGGCCGCCACUCGGUUUCUAUCUAAUCCAGUGUUUUUUUGAGU [#24 K4 Tryptophan A Exclusion]” are within 1.5-fold of each other in “apparent KD of K4 kissing-loop reporter” value: 499 nM for the first, 506 nM for the second.

“ACCAUCAAAGAUGGCCAGGACUCAACUGAUACCAGAGUGAAAACACUCCCUUGGCAGCAGGUGAGUGAUGUUCACGAGUCCUGGA [Omel KL Theo A SS B v7]” and “GUCAGACCGGGACUCCAGUGAUGUUGGAGGCAGGAUAUCCAGUCGAGGAGAAGGGCCAGGGAUAUCGAGCUGCUCGGUUUGUAGU [Xexezaes]” are within 1.5-fold of each other in “apparent KD of K4 kissing-loop reporter” value: 82 nM for the first, 108 nM for the second.

Compared with “CCUGAUCCUAGUGAUGUUAGGUCCAACGGCCGAGGACCGGUACGGCCGCCACUCGUCAAUUGGAAACAGCCCACGGGCACCGGGU [theeternabot_sameState_KL_Trp_A_19]”, “AUUUUAUUAACUGAUACCAGACUUAAUGAAUUGUAAAUUACUAGUGAUGUUAGUGAUUCUGUCCCUUGGCAGCAGUAUUUAUUAA [JR_ExcTheophyB_Sub012]” is 3.4-fold lower in “apparent KD of K4 kissing-loop reporter” value: 502 nM for the first, 146 nM for the second.

Same assay, conditions: Eterna round: R107; input ligand: none

Compared with “UAGUGAUGCUAUGUUAGGUUUUUUAGGGAAGGAGCGCCAAAGAAGGCAGGUAGGUCGCCCUAUAUUCCCAGUGAUGUUGGGUAUU [Skye_Ex_AA]”, “AUUUUUUUGUCAGGAUAUUAGUGUGCGUUUGGUUUGUUAGUGAUGUUGAUAUUUUGUUUAUGUAUUUAAGAAGGGAUUUAGCGGU [aaeatemullin]” is 6.7-fold higher in “apparent KD of K4 kissing-loop reporter” value: 74.9 nM for the first, 501 nM for the second.

Going from “GGAUUCACCAGUGAUGUUGGAGAAAACUCGAAGGAUAUGACGAAAGUCAGAAGGUCGUAGACUGGACAAAGUCCGGUCGGAUCCA [KL-SSFMN-A22]” to “CGAAGAGAGUGAUGUUCUCUAGGCAAAAGAAAGGAUAUAAUGUUUGUUAGAAGGUUCGGAAAAUGGAACGUCGGCCCGUACAACC [theeternabot_exclusion_KL_FMN_A_18]”, the “apparent KD of K4 kissing-loop reporter” value falls from 299 nM to 139 nM (2.2-fold).

First: CUUCGAUUAACAGAUACCAGUCACUUUGGAGCCACACACAAGUGAGUGAUGUUCACUUGUGACCCUUGGCAGCUGUUAGUCGAAG [Theo B Ex t1]
Second: UUUUUGGAGAAUUAUAGUGAUGUUAUGAAGGAGGAUAUCUGGAGAUGGAGAAGGCCUAGUGGCUCAGCCCUCGAGGGUGGGUGGG [ExFMNA.aC]
The “apparent KD of K4 kissing-loop reporter” value of the first is 5.3-fold lower: 83.4 nM for the first, 441 nM for the second.

“AGUGAUAUAUGAGGAUAUGGGUUAAUUAGUGAGUGAUUUUUAGUGUUGUUUGAUUAGUGAUGUUAUUUAGAAGGCGUGAGUGAUG [mvvmjmullin]” and “CGCAGUGAUGUUGCGAACAUAAUGCAUUCAGAGGAUAUUCGUUUGGGAAGAAGGCUGAAUCGUUUUUCGAGUGAUGUUUGAGGAA [Same State FMN A GF 18]” are within 1.5-fold of each other in “apparent KD of K4 kissing-loop reporter” value: 81.9 nM for the first, 114 nM for the second.

Going from “AUUUGUUUAUGCGAUACCAGACUAAGCAGUGAUGUUGCUUUUAUUUUUGAAUUUUAAAUAGUCCCUUGGCAGCGCUAUGUCUGUA [#06 K4 Theophylline B Same State]” to “UAAGCUCUGACGGCCGCCACUGCACGUGAAUCAGUGGUGGCUAACAUGAGUGAUGUUCAUGUAAGCAGGACCGGGUCAGAGCUAA [KL-XTryp-B14 #analogue]”, the “apparent KD of K4 kissing-loop reporter” value falls from 183 nM to 93.4 nM (2-fold).

First: CCAUCGCUAUUCGAUACCAGUCAGGAGGUCUGUGACCUCCUAAUGGAGUGAUGUUCCUUAGACCCUUGGCAGCGAAUAGUGAUGG [#02 K4 Theophylline B Same State]
Second: UCGAAGGAUGGAAGGAGCGCUCGUCAGCCCUGCGAGUGAUGUUCGUGGGUAAAUAGUCGCGAGCAGGUAGGUCGCCAUCUUGAGC [Ritera]
The “apparent KD of K4 kissing-loop reporter” value of the first is 1.7-fold higher: 221 nM for the first, 130 nM for the second.

“UCUUAACUAAAAUAAUGGGAUACCAGUGAUACCAGCCAUAUGCAGGGCCCUUGGCAGCACCCUUGGCAGCCUCGAGUGAUGUUCG [KL-SSTheo-A7 #DoubleAptamer]” and “GCCGUACGCAUGGAUACCAGAUCUAGACGCUUAGUGAUGUUAAGUAAUCUGGUUAGACCGAUCCCUUGGCAGCCAUGCGUACGGC” are within 1.5-fold of each other in “apparent KD of K4 kissing-loop reporter” value: 315 nM for the first, 229 nM for the second.

“GCCGUACGCAUGGAUACCAGACAACCAUUCUAAAUUUUGUGUCCGGUAGUGAUGUUACCUGUCCCUUGGCAGCCAUGCGUACGGC” and “GAACGGCGGGCGGCCGCCACUGGUAUACGAGUGAUGUUCGGAUAUACGUGAUGUAAGGUAAUUAUCAGGACCGGGUCAGAGCCGG [#16 K4 Tryptophan B Same State]” are within 1.5-fold of each other in “apparent KD of K4 kissing-loop reporter” value: 319 nM for the first, 303 nM for the second.

“UGUCAUUGGUCGGCCGCCACUAGGACCGGGUAUAACCUAGUGAUGUUAGUAAAUACGGCCGCCACUAGGACCGGGACCGAUGACU [KL-SSTryp-B18 #DoubleAptamer]” and “AAGUCAUAGGCAGGAUAUGCAUUGUAGUAAGGCAAUAUAUACGUAUAGAGUGAUGUUUUGUACCAGGCAGAAGGGCUACAUCAGU [FMN B Excl V11 (+G)]” are within 1.5-fold of each other in “apparent KD of K4 kissing-loop reporter” value: 583 nM for the first, 645 nM for the second.

First: GCUAUGGUAGGAAGGAGCGCGGACGAAAUAUAUCGAGUGAUGUUCGAAUAAUUAAAUAAAACGCAGGUAGGUCGCCUACUAUAGC [Arginine B K4 25]
Second: AGACUACCACACUGUCAAUAGACAGUGGACUAGGAUAUGCUGAUAAGCAGAAGGAGUGAUGUUCCUAGGUAGUCAAUAAAAUAAU [FmnAX 13 G28]
The “apparent KD of K4 kissing-loop reporter” value of the first is 3.4-fold lower: 110 nM for the first, 378 nM for the second.

For “UUUCUACCGGGAAGGAGCGUGAAUGAUAAUGGAUAUAGUGAUGUUAUAUAUACGAACGAAUCGCAGGUAGGUCGCCCGGAUCACU [SSArgB.U]”, the “apparent KD of K4 kissing-loop reporter” value was 1470 nM.
